The values below come from US20230416798A1 (MBRACE THERAPEUTICS, published 2023).

Common to all, as to assay: alanine scan, high-throughput flow cytometry; criterion for major residues
For orientation: Flow cytometry measures light scatter and fluorescence of single cells or particles in a stream.

The target of assay [1] is T1, GRP78 alanine scan variant at R261 (human, UniProt P11021 19-654).
T1 construct: Member of the alanine scan library of GRP78
On the procedure: (§1) To characterize the binding properties of the antibodies described in Example 1 for GRP78, epitope mapping analysis was carried out by alanine scan mutagenesis. An alanine scan library of GRP78 was constructed. Each anti-GRP78 antibody was then screened for binding to each individual GRP78 variant, allowing identification of the target protein residues involved in antibody binding.
(§2) Binding of each test antibody to each GRP78 variant in the alanine scanning library was determined by high-throughput flow cytometry under high stringency conditions (e.g., increased pH, increased salinity, increased temperature and/or increased wash time). Also included in the experiment was a commercially-available monoclonal antibody, 1H11-1H7, which was verified to bind to WT GFR78 on cells and thus determined to be a suitable positive control under these conditions (Thermo Fisher Scientific, Waltham, MA). Antibody binding to each of the GRP78 variant as measured by the fluorescence signal (raw fluorescence data minus the background), was normalized to its binding to the wildtype (WT) GRP78. For each GRP78 variant, such normalized binding to the test antibodies was plotted relative to that to the control antibody.

The target in assay [2] is T2, GRP78 alanine scan variant at R279 (human, UniProt P11021 19-654).
T2 construct: Member of the alanine scan library of GRP78
T2 sequence (P11021 other isoform, or with tags, fused parts or gaps mutant limits assumed): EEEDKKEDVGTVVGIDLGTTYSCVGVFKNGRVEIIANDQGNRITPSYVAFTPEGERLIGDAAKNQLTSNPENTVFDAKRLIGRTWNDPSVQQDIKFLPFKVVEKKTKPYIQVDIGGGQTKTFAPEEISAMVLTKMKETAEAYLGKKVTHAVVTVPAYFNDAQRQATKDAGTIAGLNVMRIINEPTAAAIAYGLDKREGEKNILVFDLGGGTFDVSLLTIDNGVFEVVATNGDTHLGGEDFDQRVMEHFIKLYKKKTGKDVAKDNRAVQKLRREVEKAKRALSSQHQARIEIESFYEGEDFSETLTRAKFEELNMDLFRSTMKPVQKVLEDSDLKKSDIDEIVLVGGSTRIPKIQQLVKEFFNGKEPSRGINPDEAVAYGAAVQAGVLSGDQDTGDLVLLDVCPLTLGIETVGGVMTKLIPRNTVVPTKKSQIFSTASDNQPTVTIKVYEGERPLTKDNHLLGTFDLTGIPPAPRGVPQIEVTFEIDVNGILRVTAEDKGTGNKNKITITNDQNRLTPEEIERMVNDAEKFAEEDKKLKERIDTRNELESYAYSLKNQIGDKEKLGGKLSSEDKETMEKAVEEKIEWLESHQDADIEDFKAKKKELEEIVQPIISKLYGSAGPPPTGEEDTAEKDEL
On the procedure: as §1, §2

In assay [3] the target is T3, GRP78 alanine scan variant at H265 (human, UniProt P11021 19-654).
T3 construct: Member of the alanine scan library of GRP78
T3 sequence (P11021 other isoform, or with tags, fused parts or gaps mutant limits assumed): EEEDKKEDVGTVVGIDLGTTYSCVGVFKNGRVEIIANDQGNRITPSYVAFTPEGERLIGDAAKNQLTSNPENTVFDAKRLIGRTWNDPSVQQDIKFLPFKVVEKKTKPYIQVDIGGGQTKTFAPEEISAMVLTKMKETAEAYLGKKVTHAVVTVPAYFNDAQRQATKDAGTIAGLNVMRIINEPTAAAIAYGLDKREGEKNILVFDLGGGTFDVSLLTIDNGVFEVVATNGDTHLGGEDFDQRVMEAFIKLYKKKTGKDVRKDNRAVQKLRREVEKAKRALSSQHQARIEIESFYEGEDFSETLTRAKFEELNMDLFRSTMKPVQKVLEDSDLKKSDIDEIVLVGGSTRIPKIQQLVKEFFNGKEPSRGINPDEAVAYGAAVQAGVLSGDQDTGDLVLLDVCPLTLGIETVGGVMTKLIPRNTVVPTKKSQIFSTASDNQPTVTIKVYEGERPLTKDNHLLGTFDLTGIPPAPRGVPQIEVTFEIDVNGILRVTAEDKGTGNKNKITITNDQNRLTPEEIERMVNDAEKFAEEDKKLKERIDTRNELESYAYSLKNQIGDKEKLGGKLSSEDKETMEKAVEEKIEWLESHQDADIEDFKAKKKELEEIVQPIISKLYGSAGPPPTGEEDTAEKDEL
On the procedure:
as §1, §2

The target in assay [4] is T4, GRP78 alanine scan variant at E329 (human, UniProt P11021 19-654).
T4 construct: Member of the alanine scan library of GRP78
T4 sequence (P11021 other isoform, or with tags, fused parts or gaps mutant limits assumed): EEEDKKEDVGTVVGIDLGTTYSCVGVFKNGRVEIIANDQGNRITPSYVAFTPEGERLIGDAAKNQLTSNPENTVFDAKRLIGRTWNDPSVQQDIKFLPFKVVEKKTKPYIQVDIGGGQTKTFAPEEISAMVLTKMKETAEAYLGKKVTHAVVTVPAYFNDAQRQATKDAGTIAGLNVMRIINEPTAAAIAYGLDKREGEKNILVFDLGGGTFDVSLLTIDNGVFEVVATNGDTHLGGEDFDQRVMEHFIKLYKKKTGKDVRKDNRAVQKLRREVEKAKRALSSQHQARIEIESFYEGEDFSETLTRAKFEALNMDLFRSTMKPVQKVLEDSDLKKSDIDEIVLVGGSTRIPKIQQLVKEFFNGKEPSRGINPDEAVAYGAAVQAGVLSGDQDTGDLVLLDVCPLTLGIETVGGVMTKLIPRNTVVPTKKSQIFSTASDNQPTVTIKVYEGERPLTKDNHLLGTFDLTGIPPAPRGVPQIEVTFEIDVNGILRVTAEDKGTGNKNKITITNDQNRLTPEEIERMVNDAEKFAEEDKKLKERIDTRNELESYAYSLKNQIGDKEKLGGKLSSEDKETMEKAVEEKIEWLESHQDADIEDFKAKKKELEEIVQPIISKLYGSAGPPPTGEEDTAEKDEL
On the procedure: as §1, §2

Where only a bound is given, the exact number is not on record here.

T1 sequence (P11021 other isoform, or with tags, fused parts or gaps mutant limits assumed): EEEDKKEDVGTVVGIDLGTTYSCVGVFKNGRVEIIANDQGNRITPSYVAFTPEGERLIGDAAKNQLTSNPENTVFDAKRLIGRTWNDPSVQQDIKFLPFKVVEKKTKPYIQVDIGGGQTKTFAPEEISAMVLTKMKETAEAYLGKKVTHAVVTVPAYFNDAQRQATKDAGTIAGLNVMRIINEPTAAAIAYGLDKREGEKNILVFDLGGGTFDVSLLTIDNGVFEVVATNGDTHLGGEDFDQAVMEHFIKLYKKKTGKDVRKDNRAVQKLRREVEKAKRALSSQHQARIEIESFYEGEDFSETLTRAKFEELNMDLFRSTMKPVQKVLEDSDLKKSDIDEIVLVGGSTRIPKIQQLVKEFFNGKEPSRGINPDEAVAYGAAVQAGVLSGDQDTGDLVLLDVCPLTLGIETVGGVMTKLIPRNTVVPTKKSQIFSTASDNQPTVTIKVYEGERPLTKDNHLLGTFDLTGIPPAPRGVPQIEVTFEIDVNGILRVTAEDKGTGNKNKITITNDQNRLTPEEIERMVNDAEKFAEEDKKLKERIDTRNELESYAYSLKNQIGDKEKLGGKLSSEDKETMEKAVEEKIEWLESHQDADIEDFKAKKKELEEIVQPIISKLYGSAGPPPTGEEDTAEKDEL

B1: anti-GRP78 antibody clone F6 (antibody, IgG1, V domains shown)
VH: QVQLQQSGPGLVKPPQTLSLTCAISGDSVSSNSAAWNWIRQSPSRGLEWLGRTYYRSKWYNDYAVSVKSRITINPDTSKNQFSLQLNSVTPEDTAVYYCARDPYYYDSSGYYYFDAFDIWGQGTMVTVSS
VL: SYELTQPHSVSVAPGQTARITCGGDNIGSKSVHWYQQRPGQAPVLVVYDDSDRPSGIPERFSGSNSENTATLTISGVEAGDEADYYCQVWDSTSHHVVFGGGTKLTVL
notes: Fully human mAb formatted as full-length IgG1; also called F6 mAb; Anti-GRP78 (F6)
Turning to B1, the “binding normalized to wildtype (WT) GRP78” value in assay [1] and in assay [2] was below 20% throughout.

B2: anti-GRP78 antibody clone B4 (antibody, IgG1, V domains shown)
VH: QVRLQESGPGLVKPSQTLSLTCTVSGGSISSGGYYWSWIRQHPGKGLEWIGYIYYSGSTYYNPSLESRVTISVDTSKNQFSLKLSSVTAADTAVYYCARYSSIDAFEIWGQGTMVTVSS
VL: SYVLTQPPSVSVAPGKTATITCGGDDIGSKSVHWYQQKPGQAPVLVVYDDGDRPSGIPERFSGSNSGNTATLAISRVEAGDEADYYCQVWDSSSDQYVFGSGTKLTVL
notes: Fully human mAb formatted as full-length IgG1; also called B4 mAb
On to B2, for which the “binding normalized to wildtype (WT) GRP78” value in assay [1], in assay [3] and in assay [4] was below 20% in each case.
